Laboratory results from publication PMC5615210, “Design and Characterization of a Human Monoclonal Antibody that Modulates Mutant Connexin 26 Hemichannels Implicated in Deafness and Skin Disorders” (Frontiers in Molecular Neuroscience, 2017).
Ends that are not written are not given here. * marks the point of attachment. Biotin = O=C1N[C@H]2[C@H](CS[C@H]2CCCCC(=O)*)N1

Tests used:
[1] = molecular target: endogenous Cx26 of mouse cochlear organotypic cultures (Mus musculus C57BL6/N, UniProt Q00977); test: immunostaining of cells or tissue; cochlear organotypic cultures of P5 mice fixed in 4% PFA, not permeabilised, abEC1.1 (2 ug/ml) overnight at 4 C, fluorescein anti-human IgG secondary antibody, confocal microscopy; control with abEC1.1 pre-incubated overnight with pepEC1.1 at 1:10 (w/w); details: one partner purified
[2] = molecular target: T1, pepEC1.1, peptide corresponding to residues 41-56 of Cx26 (Homo sapiens); test: ELISA; avidin-coated wells (1 ug/well), biotinylated pepEC1.1 captured (0.05 ug/well), abEC1.1 (1 mg/ml, diluted 1:100 in M-PBST) 1 h at 37 C, goat anti-human HRP conjugate, ABTS, OD at 405 nm; details: both partners purified
T1 construct: connexin 26 (Cx26), residues 41-56 in the EC1 domain; also called bait peptide; cognate peptide; source: synthetic peptide (Chinese Peptide Company)
T1 chain: Biotin-KEVWGDEQADFVCNTL

B1: abEC1.1 antibody (scFv-Fc fusion protein) (scFv, V domains shown)
VH: QVQLQQSGGGVVQPGRSLRLSCAASGFTFSSYAMHWVRQAPGKGLEWVAVISHGGSNKYYADSVKGRFTISRDNSKNTLYLQMNSLRAEDTAVYYCARDFSWRGYYMDVWGKGTLVTVSS
VL: ETTLTQSPATLSLSPGERATLSCRASQSISSYLAWYQQKPGQAPRLLIYGASTRATGIPDRFSGSGSGTDFTLTISRLEPEDFAVYYCQQYGSSPRTFGGGTKVEIK
notes: scFv domain of abEC1.1 (VH and VL joined by a linker of seven amino acids); scFv-Fc format from a modified pFUSE vector (pfuse-hg1fc2); also called wild type abEC1.1; source: FreeStyle 293-F cells, transfected, purified (HiTrap Protein A HP); not shown: Fc (hinge and Fc of human IgG1), C-terminal, kept
[1]
  binding result: binds
[2]
  binding result: binds
